According to US20250152717A1 (AFFINI T THERAPEUTICS, published 2025):

Target: RAB7B-derived peptide presented by HLA-A11 (human)
Assay: cell-based or functional assay
Design: unit not given beside the values

B1: TCR 11N4A (TCR, V domains shown)
V domain 1: DQQVKQNSPSLSVQEGRISILNCDYTNSMFDYFLWYKKYPAEGPTFLISISSIKDKNEDGRFTVFLNKSAKHLSLHIVPSQPGDSAVYFCAASGVSGNTPLVFGKGTRLSVIA
V domain 2: GVTQTPRYLIKTRGQQVTLSCSPISGHRSVSWYQQTPGQGLQFLFEYFSETQRNKGNFPGRFSGRQFSNSRSEMNVSTLELGDSALYLCASSVGTVEQYFGPGTRLTVTE
  EC50 of the peptide dose-response of CD137 expression, sort-purified TCR 11N4A-transduced T cells: ~35
